Test [1] concerns the target T1, human Bfl-1 (c-myc-tagged) (human, UniProt Q16548 1-151).
T1 chain: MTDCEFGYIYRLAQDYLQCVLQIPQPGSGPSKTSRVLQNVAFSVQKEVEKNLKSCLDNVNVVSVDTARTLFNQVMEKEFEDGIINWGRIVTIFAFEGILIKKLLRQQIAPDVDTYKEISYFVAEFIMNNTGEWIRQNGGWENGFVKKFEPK
Nature of the test: fluorescence anisotropy competition.

Test [2] concerns the target T1, human Bfl-1 (c-myc-tagged). Briefly: fluorescence anisotropy competition.
For another test, the target named is Bcl-2 (c-myc-tagged) (human, UniProt P10415 1-217). Nature of the test: fluorescence anisotropy competition.
Sequence of Bcl-2 (c-myc-tagged) (P10415 1-217): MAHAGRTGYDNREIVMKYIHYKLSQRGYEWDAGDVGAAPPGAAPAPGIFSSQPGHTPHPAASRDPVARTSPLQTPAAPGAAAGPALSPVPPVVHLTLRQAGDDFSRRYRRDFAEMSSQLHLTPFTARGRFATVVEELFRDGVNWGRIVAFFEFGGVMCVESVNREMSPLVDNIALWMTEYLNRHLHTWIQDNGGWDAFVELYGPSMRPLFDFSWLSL
The next test has as its target Bcl-xL (c-myc-tagged) (human, UniProt Q07817 1-209). Briefly: fluorescence anisotropy competition.
The target in the next test is T2, Bcl-w (c-myc-tagged) (human, UniProt Q92843 1-164).
T2 chain: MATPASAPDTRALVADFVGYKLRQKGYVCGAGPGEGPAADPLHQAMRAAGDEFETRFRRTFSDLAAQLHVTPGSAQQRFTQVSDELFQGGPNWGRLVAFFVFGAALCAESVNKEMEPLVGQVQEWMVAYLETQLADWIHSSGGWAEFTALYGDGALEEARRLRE
Nature of the test: fluorescence anisotropy competition.

The target in test [3] is T3, human Mcl-1 (c-myc-tagged) (human, UniProt Q07820 172-327).
T3 chain: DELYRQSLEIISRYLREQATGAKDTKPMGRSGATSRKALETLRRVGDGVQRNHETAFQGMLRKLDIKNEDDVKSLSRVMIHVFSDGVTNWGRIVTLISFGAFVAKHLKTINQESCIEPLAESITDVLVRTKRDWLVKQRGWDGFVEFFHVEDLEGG
Nature of the test: fluorescence anisotropy competition.

Test [4] concerns the target T1, human Bfl-1 (c-myc-tagged). Briefly: anisotropy.

Some results are limits rather than exact numbers.

Sequence of Bcl-xL (c-myc-tagged) (Q07817 1-209): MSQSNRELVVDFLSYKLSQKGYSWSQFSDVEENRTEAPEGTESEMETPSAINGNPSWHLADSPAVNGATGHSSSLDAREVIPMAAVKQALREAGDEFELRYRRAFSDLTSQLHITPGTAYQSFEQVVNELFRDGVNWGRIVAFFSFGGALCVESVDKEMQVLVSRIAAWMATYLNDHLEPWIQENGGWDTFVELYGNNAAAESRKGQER

Take Ac-QWVREIAAGLRRAADDVNAQVER-NH2 [FS2]: the Ki stood at 21 nM in test [1]; 24.8 nM in test [2]; 2450 nM in the test with Bcl-2 (c-myc-tagged); 7340 nM with Bcl-xL (c-myc-tagged); 7210 nM with Bcl-w (c-myc-tagged); 2580 nM in test [3].

Ac-QWAREIGAGLRRAADDVNAQVER-NH2 [PUMA/FS2 chimeric peptide: PUMA with smaller residues at positions G2, D3, A4 and E4] registered a Ki in test [1] of 600 nM.

Ac-QWAREIGAQLRRMADDLNAQYER-NH2 [Puma BH3 peptide (23 residues)]: the Ki in test [1] turned out to be 4.8 nM; in test [2], 5.1 nM; with Bcl-w (c-myc-tagged) it was 6 nM; in test [3], 2.7 nM.

Turning to Ac-QWVREIAAGLRLAADNVNAQLER-NH2 [FS1], the Ki was 16.4 nM in test [4]; 6940 nM with Bcl-2 (c-myc-tagged); 2720 nM with Bcl-xL (c-myc-tagged); 8880 nM with Bcl-w (c-myc-tagged); more than 5000 nM in test [3].

Ac-QWVREIAAQLRRMADDLNAQYER-NH2 [PUMA/FS2 chimeric peptide: PUMA with larger residues at positions A2 and E2]: affinity in test [1] was put at a Ki of 2.1 nM. That is a single-digit nanomolar value.

As to Ac-QWIREIAAGLRRFADILNAQVER-NH2 [FS3], the Ki amounted to 2.1 nM in test [2]; 2360 nM with Bcl-2 (c-myc-tagged); 105 nM with Bcl-xL (c-myc-tagged); 828 nM with Bcl-w (c-myc-tagged); 711 nM in test [3].
